Data from PMC3224728, “Identification of target genes of transcription factor activator protein 2 gamma in breast cancer cells”.

B1: HMT (dsDNA)
DNA 1: AACGGACCGCCCGCGGCCCGT
DNA 2: ACGGGCCGCGGGCGGTCCGTT
B2: WtR3-36-648/HPSE (dsDNA)
DNA 1: AAAAGTGCCCAGAGCCCATGA
DNA 2: TCATGGGCTCTGGGCACTTTT
B3: WtR1-15-286/IGSF11 (dsDNA)
DNA 1: TTTGCTGCCTTTGTCCTGTAG
DNA 2: CTACAGGACAAAGGCAGCAAA
B4: MtR3-36-676/HPSE (dsDNA)
DNA 1: AATGTGATTCTGATCACTTAG
DNA 2: CTAAGTGATCAGAATCACATT
B5: WtR3-36-676/HPSE (dsDNA)
DNA 1: AATGTGGCCCTGGTCACTTAG
DNA 2: CTAAGTGACCAGGGCCACATT
B6: MtR3-36-648/HPSE (dsDNA)
DNA 1: AAAAGTATTCAGGGCCCATGA
DNA 2: TCATGGGCCCTGAATACTTTT
B7: MtR1-15-286/IGSF11 (dsDNA)
DNA 1: TTTGCTATTTTTATCCTGTAG
DNA 2: CTACAGGATAAAAATAGCAAA
B8: MtR4-28-854/CDH2 (dsDNA)
DNA 1: ATGCGACCCGCAAATATGCCA
DNA 2: TGGCATATTTGCGGGTCGCAT
B9: WtR4-28-854/CDH2 (dsDNA)
DNA 1: ATGCGACCTGCAGGCATGCCA
DNA 2: TGGCATGCCTGCAGGTCGCAT

What follows are binders tested against T1, GST-AP-2γ (UniProt Q92754 1-450) (assay: competition; 10- or 50-fold excess unlabeled vs wild-type HPSE-648, CDH2-854, IGSF11-286 probes; markedly decreased binding; 10 mM HEPES pH 8.0, 60 mM KCl, 4 mM MgCl2, 0.1 mM EDTA, 100 μg/ml BSA, 0.25 mM DTT, 10% glycerol, 37°C 20 min; 5 pmol probe, 50 pmol protein in 15 μl; 6% native PAGE). Details: protein: recombinant; tags: GST (N-terminal, pGEX-4T-2); chain copies: 2; blunt.
T1 sequence (Q92754 whole entry): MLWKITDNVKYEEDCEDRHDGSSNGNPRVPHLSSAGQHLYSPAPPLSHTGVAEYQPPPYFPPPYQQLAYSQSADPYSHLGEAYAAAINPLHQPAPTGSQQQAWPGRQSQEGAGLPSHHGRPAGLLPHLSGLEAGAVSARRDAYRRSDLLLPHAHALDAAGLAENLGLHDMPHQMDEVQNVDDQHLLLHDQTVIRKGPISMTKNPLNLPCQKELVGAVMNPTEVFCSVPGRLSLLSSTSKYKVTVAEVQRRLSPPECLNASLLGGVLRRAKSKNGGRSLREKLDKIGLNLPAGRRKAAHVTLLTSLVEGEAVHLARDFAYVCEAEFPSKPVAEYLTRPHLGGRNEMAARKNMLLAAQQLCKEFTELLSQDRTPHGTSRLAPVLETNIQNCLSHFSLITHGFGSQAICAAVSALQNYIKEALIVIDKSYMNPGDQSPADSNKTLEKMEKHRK
B1: binds.

What follows are binders tested against T1, GST-AP-2γ (assay: EMSA; 10 mM HEPES pH 8.0, 60 mM KCl, 4 mM MgCl2, 0.1 mM EDTA, 100 μg/ml BSA, 0.25 mM DTT, 10% glycerol, 37°C 20 min; 5 pmol probe, 50 pmol protein in 15 μl; 6% native PAGE). Details: protein: recombinant; tags: GST (N-terminal, pGEX-4T-2); chain copies: 2; label: 32P 5' end of forward strand; blunt.
B2: binds.
B3: binds.
B4: no binding.
B5: no binding.
B6: no binding.
B7: no binding.
B8: no binding.
B9: binds.
